Source: the nanobody polyreactivity screen of Harvey et al. (2022)

Test: yeast display, Sf9 membrane polyspecificity reagent, FACS + sequencing; frameworks hold sequencing errors
Procedure, shortened: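 Nanobodies from a synthetic yeast display library (Saccharomyces cerevisiae BJ5465), induced 36–48 hours with galactose, were stained 1 hour at 4 °C with 10% biotinylated, detergent-solubilized Sf9 membrane reagent, enriched on streptavidin microbeads, then FACS-sorted. Anti-HA (expression) and streptavidin (reagent binding) fluorescence set low and high (top ~1%) gates. Polyreactivity labels come from the gate of origin. Genes were colony-PCR amplified, MiSeq 2 × 250 sequenced and filtered by CDR length.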

| Sequence | polyreactivity (PSR sort gate) |
| --- | --- |
| QVQLVESGGGLVQAGGSLRLSCAASGFTFIDNTMGWYRQAPGKERELVAAISSDGRTNYAVSVKGRFTISRDNAKNTVYLQMNSLKAEDTAFYYCATEDNYWYVTGDLYHSAFYYWGQGTQVTVSS | low polyreactivity |
| QVQLVESGGGLVQAGGSLRLSCAASGITFLDYAMRWYRQAPGKERELVAAITKSVGSTYYADSVKGRFTISRDNAKNTVYLQMNSLKPEDTAVYYCAADPDSGQVPFDYWGQGTQVTVSS | low polyreactivity |
| QVQHVESGGGLVQAGGSLRLSCAASGFIFLYYAMGWYRQAHGQERELVAAISRSGGRTYYADSVKGRFTISRDTAKNTVYLQMNSLKPEDTAVYYCAADRLGSISGYDYWGQGTQVTVSS | high polyreactivity |
| QVQLVESGGGLVQAGGSLRLSCAASGSTFVGYTMGWYRQAPGKERELVASITSDGSTNYADSVKGRFTISRDNAKNTVYLQMNSLKPEDTAVYYCNADIRRHGGYAHEYWGQGTQVTVSS | low polyreactivity |
| QVQLVESGGGLVQAGGSLRLSCAASGSIFGGNAMGWYRQAPGKERELVATITSAGSTYYADSVKGRFTISRDNAKNTVYLQMNSLKPEDTAVYYCAADPTYYWRYYPTRLYVEYDYWGQGTQVTVSS | low polyreactivity |
| QVQLVESGGRLVQAGGTLRLSCAASGRTLSNYALGWSRQAPGKERELVAAISSSGSTNYADSVKGRFTISRDNAKNTVYLQMNSLKPEDSAVYYCAAESWFLRWYRYDYWGQGTQVTVSS | low polyreactivity |
| QVQLVESGGGLVQAGGSLRLSCAASGFIFRYYAMGWYRQAPGKERELVAAISGNGGNTYYADSVKGRFTISRDNAKNTVYLQMNSLKPEDTAVYNCNRAPGYRGGRYDYWGQGTQVTVSS | high polyreactivity |
| QVQLVESGGGLVQAGGSLRLSCAASGLIFYGNAMGWYREAPGKERELVAAISRRGGRTYYADSVKGRFTISRDNAKKSVYLQMHSLKPEDTAVYYCAAGVPKNGQAGYDYWGQGTQVTVSS | high polyreactivity |
| QDQLVESGGGLVQAGGSLRLSCAASGRILTKYAMGWYRQAPGKERELVAAISDSGTGTYYADSVKGRFTISRDNAKNTVYLQMNSLKPEDTAVYYCNAQTRRTRTYHGHKYGYWGQGTQVTVSS | high polyreactivity |
| QVQLVESGGGLVQAGASLRLSCAPSGSTFYPNSMAWYRQSPGKERHLVDAITSGGSTYYADSVKGRFTISRDNSKNTVYLQMNSLKPEDTAVYYCAAQRRYHQDTTIAPGNYYYWGQGTQVTVSS | low polyreactivity |
| QVQLVESGGGLVQAGGSLRLSCAASGGTFIRYAMGWYRQAPGKEREFVAAISASGGSTYYADSVKGRFTISRDNAKNTVYLQMNSLKPEDTAVYYCAARRTNLPVKFYYWGQGTQVTVSS | high polyreactivity |
| QVQLVESGGGLVQAGGSLRLSCAASGIILTQNAMGWYRQAPGKERELVAAITESGARTYYADSVKGRFTISRDNAKNTVYLQMNSLKPEDTAVYYCNAYRYYRGQVYPFYYWGQGTQVTVSS | low polyreactivity |
| QVQLVESGGGLVQAGGSLRLSCAASGIIFKYNAMGWSRQAPGKERELVAAITSGGSTYYADSVKGRFTISRDNAKNTVYLQRNSLKPEDTAVYYCAARYTYVKNFFRRLTAYYYWGQGTQVTVSS | high polyreactivity |
| QDQLVESGGGLVRAGGSLRLSCAASGSIFVVNAMGLYRQAPGKERELVADINSGGSTNFADSVKGRFTISRDNAKNTVYLQMNSLKPEDTAVYYCAKSAVTGTYDYWGQGTLVTVSS | low polyreactivity |
| QVQLVESGGGLVQAGGSLRLSCAASGLTLRNYAMGWYRQAPGKERELVAAITTGGGRTYYADSVKGRFTISRDNAKNTVYLQMNSLKPEDTAVYYCAAERAILSSDKQSLWRFDYWGQGTQVTVSS | low polyreactivity |
| QVQLVESRGGLVQAGGSHRLSCAASGSIFGANAMGWYRQAPGKERELVAAITSGSGTNYADSVKGRFTISRDNAKNTVYLQMISLNPEDTAVYYCAAVVLYQGRYDYWGQGTQVTVSS | low polyreactivity |
| QVQLVESGGGLVQAGGSLRLSCAASGRTFRIYSMGWYRQAPGKEREFVAGITRSDGSTYYADSVKGRFTISRDNAKNTVYLQMNSLKPEDTAVYYCNVEPYSHYRRTEDYWGQGTQVTVSS | high polyreactivity |
| QVQLVESGGGLVQAGGSLRLSCAASGFTSLVNAMGWYRQAPGKERELVAAITGGGSTNYADSVKGRFTISRDNAKNTVYLQMNSLKPEDTAVYYCNAVGYYGYPRIPQFYAFAFYYWGQGTQVTVSS | low polyreactivity |
| QVQLVESGGGLVQAGGSLRLSCAASGFTFSFYAMGWYRQAPGKERELVATISSGGSTTYADSVKGRFTISRDNAKNTVYLQMNSLKPEDTEVYYCAARYGRVRNYRYDYWGQGTQVTVSS | high polyreactivity |
| QVQLVESGGGLVQARGSLRLSCEASGFTFGSNTMACYRQAPGKERELVAAITRRGGSTNYADSVKGRFTISRDNAKNTVYLQMNSLKPDDTAVYYCARDYRSYTVSYDTSYDYWGQGTQVTVSS | high polyreactivity |
| QVQLVESGGGLVQAGVSLRLSCAASGSIFRWNAMGWYRQAPGKERELVAAITGSGGSTYYADSVKGRFTISRDNAKNTVYLQMNSLKPEDTAVYYCAAKSPRILLDYWGQGTQVTVSS | low polyreactivity |
| QVQLVESGGGLVQAGGSLRLSCVASGSILAYYAMGWYRQAPGKERELVAAISRSGGSTYYADSVKRRFTISRDNAKNTVNLQMNSLKPEDTAVYYCAADFRRWQYNTVNEFGYWGQGTQVTVSS | high polyreactivity |

| Sequence | polyreactivity (PSR sort gate) |
| --- | --- |
| QVQLVESGGGLVQAGGSLRLSCAASGFTFDPYAMGWYREAPGKERELVAAISFSGGSTSYADSVKGRFTISRDNAKNSVYFQMNSLKPEDTAVYYCAAYSWLYEGYEYWGQGTQVTVSS | high polyreactivity |
| QVQLVESGGGLVQAGGSLRLSCAASGSIFSTYAMGWYRQAPGKERELVAAIRTWSGGRTYYADSVKGRFTISRDNAKNTVYLQMNSLKPEDTAVYYCAAQFSRYRDYGLNYYYWGQGTQVTVSS | high polyreactivity |
| QVQLVESGGGLVQAGGSLRLSCAASGIIFRLNAMGWYRQAPGKVRELVAAIRRRGGSTYYADSVKGRFTISRDNAKNTVYLQMNSLKPEDTAVYYCAKDPHGSDFGYWGQGTQVTVSS | low polyreactivity |
| QVQLVESGGGLVQAGGSLRLSCAASGRIFLRYAMGWYRQAPGKERELVAVITWSGGSTNYADSVKGRFTISRDNAKNTVYLQMNSLKREDTAVYYCAVDNTGRSWPYDYWGQGTQVTVSS | low polyreactivity |
| QVHLVESGGGLFQAGGSLRLSFAATGLTFSPYARGWYRHGPGKERELVASITNGGRTYYADSVKGRFTISRDNAKITVYLQMNSLKPEDTAVYYCAAYPRGARRLDYWGQGTQVTVSS | high polyreactivity |
| QVQLVESGGGLVQAGGSLRLSCAASGRIFSTYAMGWYRQAPGKERELVAAITNSAGSTYYADSVKGLFTISRDNAKNTVYLQMNSLKPEDTAVYYCATGWSRISYGFDYWGQGTQVTVSS | low polyreactivity |
| QVQLVESGGGLVQAGGSLRLSCAASGYTFESYTMGWYRQAPGKEREFVAVISSSDTSTSYADSVKGRFTISRDNAKNTVYLQMNSLKPEDTAVYYCAAYSSPYYITYYWYNYDYWGQGTQVTVSS | low polyreactivity |
| QVQLVESGGGLVQAGGSLRLSCAASGLTVKYYAMGWFRQAPGKERELAAIISFGGGSTYYADSVKGRFTISRDNAKNTVYLQMNSLKPEDTAVYYCNARLLFKYGYWGQGTQVTVSS | high polyreactivity |
| QVQLVESGGGLVQAGGSLRLSCAASRLTFYGYGMGWYRQAPGKERELVASITSGGNTYYADSVKGRFTISRDNAKNTVYLRMNSLKPEDTAVYYCAVTAIALYYSSGYYWGQGTQVTVSS | low polyreactivity |
| QVQLVESGGGLVQAGGSLRLSCAASGRTFRRYVMGGYRQAPGKERELVATITSGGRTNYADSVKGRFTISRDNAKNTVYLQMNSLKPEDTAVYYCNAVRIGLRYYYWGQGTQVTVSS | low polyreactivity |
| QVQLVESGGGLVQAGGSLRLSCAASGSIFSWYAMGWYRQAPGKERELVAAITWTGGSTYYADSVKGRFTISRDNAKNTVYLQMLSLKPEDTAVYYCAARRVVYRYYWYSAYDYWGQGTQVTVSS | high polyreactivity |
| QVQLVESGGGLVQAGGSLRLSCAASGSILGTYAMGWYRPAPGKESELVAAISSSGRTSYADTVKGRFTNSRDNAKNTVYLQMKSLKPEDTAVYYCNASNYIVLINDPDAAPWVYDYWGPGTQVTVSS | low polyreactivity |
| QVQLVESGGGLVQAGGSLRLSCAASGITFWFYSKGWYRQSPGNERELVAAISRSGSTNYADSVKGRFTISRDNAKNTVYLQMNSLKPEDTAVYYCAASTYKYKLLYYQYDYWGQGTQVTVSS | high polyreactivity |
| QVQLVESGGGLVQAGGSLRLSCAASGSTIDYYAMGWYRQAPGKERELVAGIDSAGSTNYADSVKGRFTISRDNAKNTFYLQMNSLKTGRYRGLYCNVGKTITTYAFTTFDYWGQGTHVTVSS | low polyreactivity |
| QVQLVESGGGLVQAGGSLRLSCAASGSTFGSYGMGWYRQAPGKEREVVAVITYSGDRTYYADSVKGRFTISRDNAKNTVYLQMNSLKPEDTAVYYCAADRSYRVSEYDYWGQGTQVTVSS | low polyreactivity |
| QVQLVESGGGLVQAGGSLRLSCAASGSIFYRNAMGWYRQAPGKERELVAAISARGGRTNYADSVKGRFTISRDNAKNTVYLQMNSLKPEDTAVYYCNTADSWYHRSQAYDYWGQGTQVTVSS | high polyreactivity |
| QVQLVESGGGLVQAGGSLRLSCAASGYTFNWYAMGWYRQAPGKERELVAAISWRSGRTYYADSVKGRFTISRDNAKNTVYLQMNSLKPEDTAVYYCAVTTTSGAPGGSYYYWGQGTQVTVSS | high polyreactivity |
| QVQLVESGGGLVQAGGSLRLSCAASGFTFDPYAMGWYRQAPGKERELVAAISFSGGSTSYADSVKGRFTISRDNAKNTVYLQMNSLKPEDTAVYYCAAYSWLYEGYEYWGLGTQVTVSS | high polyreactivity |
| QVQLVESGGGLVQAGGSLRLSCAASGSIFHWYAMGWYRQAPGKERELVAAISYSGASTYYADSVKGRFTISRDNAKITVYLQMNSLKPDDTAVYYCAAKVTGKGYYWGQGTQVTVSS | high polyreactivity |
| QVQLVESGGGLVQAGGSLRLSCAASGFIFYLNVMGWYRQAPGKERELVATITSGGSTNYADSVKGRFTISRDNAKNTVYLQMNSLKPEDTAVYYCAARRGKSYYWYNYWGQGTQVTVSS | high polyreactivity |
| QVQLVESGGGLVQAGGSLRLSCAASVFTFKINGMGWYRQAPGKEREFVATIRTSTGRTYYADSVKGRFTISRDNAKNTVYLQMNSLKPEDTAVYYCDTRVRQGNTHPNGKSDDYWGQGTQVTVSS | high polyreactivity |
